The values below are quoted from earlier work in patent US20060084109.

This data set addresses T1, Formamidopyrimidine glycosylase (Fpg, MutM) (Escherichia coli) (UniProt P05523).
T1 sequence: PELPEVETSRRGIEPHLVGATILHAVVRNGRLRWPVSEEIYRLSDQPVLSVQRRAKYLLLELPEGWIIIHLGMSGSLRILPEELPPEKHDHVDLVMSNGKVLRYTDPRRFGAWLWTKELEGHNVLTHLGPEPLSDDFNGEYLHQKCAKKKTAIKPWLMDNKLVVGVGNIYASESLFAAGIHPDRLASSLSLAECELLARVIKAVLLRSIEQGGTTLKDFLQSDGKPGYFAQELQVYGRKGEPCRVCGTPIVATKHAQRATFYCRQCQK
The experiment in a line: cleavage_in_vitro. The following applies: 8-oxo-dG at position 10, cytidine opposite in complementary strand; CITED Vuyisich and Beal 2002; product from 20 nM substrate, 1 nM Fpg, 7 min, room temperature, no inhibitor.

On to “TCATGGGTCNTCGGTATA (double strand) [Fpg 18-mer 8-oxo-dG substrate duplex]”, for which the activity is 2 nM.
